The source of these data is patent US20240084019A1 (OSE IMMUNOTHERAPEUTICS, published 2024).

Test [1] deals with T1, Biot-C7 peptide: biotinylated NH2-PYHTLNLLELHHTAMPGSVFSLGLPLATALAIA-COOH (human, biotinylated (position not given)).
T1 construct: also called C7biot; biotinylated antigen-specific peptide
T1 peptide: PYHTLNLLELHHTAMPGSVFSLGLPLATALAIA
As to the kind of experiment: activity ELISA on biotinylated C7 peptide; column head printed ED50 (ng/ml). (An ELISA detects its analyte on a solid surface through an enzyme-linked reagent.)

In test [2] the target is T1, Biot-C7 peptide: biotinylated …. Briefly: activity ELISA on Biot-C7 peptide; column head printed ED50 (ng/ml).
Test [3] shares this target. Briefly: activity ELISA on Biot-C7 peptide; column head printed ED50 (ng/ml); batch #170919.
Test [4] shares this target. As to the kind of experiment: activity ELISA on Biot-C7 peptide; column head printed ED50 (ng/ml); second batch, no number.

The term EC50 denotes the concentration that produces a half-maximal response. A high value points to a less potent agent.

B1: anti-CMKLR1 antibody 2G1 (parental chimeric antibody) (antibody, human IgG1, V domains shown)
VH: EVQLVASGGGLVQPGGSLKLSCAASGFTFSSYGMSWVRQTPDRRLELVATINRYGGSTYYPDSVKGRFTISRDNAKNTLYLQMSSLKSEDTAMYYCPRLIYYGNEGDSWGQGTTLTVSS
VL: QIVLTQSPAIMSASPGEKVTMTCSASSSVSFMHWYQQKSGTSPKRWIYDTTKLTSGVPARFSGSGSGTFYSLTISSMEAEDAATYYCQQWNSKPPLTFGPGTKLELKR
notes: also called 2G1 wt; 2G1 WT
Turning to B1, the results for the EC50 in test [1] and in test [2] were 0.269 µg/mL and 0.222 µg/mL, respectively.

B2: HDLD humanized anti-CMKLR1 antibody (antibody, human IgG1, V domains shown)
VH: EVQLVESGGGLVQPGGSLRLSCAASGFTFSSYAMSWVRQAPGKGLELVATINRYGGSTYYAASVKGRFTISRDNSKNTLYLQMNSLRAEDTAVYYCPKLIYYGNEGDSWGQGTLVTVSS
VL: AIQLTQSPSSLSASVGDRVTITCRASQSVSFLHWYQQKPGKAPKRWIYDATKLTSGVPSRFSGSGSGTDFTLTISSLQPEDFATYYCQQWQSKPPLTFGGGTKVEIK
notes: Variable domains only; fused to constant fragment of human immunoglobulin (human IgG1, kappa)
As for B2, the EC50 in test [1] amounted to 0.195 µg/mL; in test [2], 0.193 µg/mL.

B3: HD-LDT52S humanized anti-CMKLR1 antibody (antibody, V domains shown)
VH: EVQLVESGGGLVQPGGSLRLSCAASGFTFSSYAMSWVRQAPGKGLELVATINRYGGSTYYAASVKGRFTISRDNSKNTLYLQMNSLRAEDTAVYYCPKLIYYGNEGDSWGQGTLVTVSS
VL: AIQLTQSPSSLSASVGDRVTITCRASQSVSFLHWYQQKPGKAPKRWIYDASKLTSGVPSRFSGSGSGTDFTLTISSLQPEDFATYYCQQWQSKPPLTFGGGTKVEIK
notes: fused to constant fragment of human immunoglobulin
B3: in test [2], the response was half-maximal at 0.237 µg/mL (EC50).

B4: HALA humanized anti-CMKLR1 antibody (VHvAv3-23*04 + VLvAv1-13*01) (antibody, human IgG1, V domains shown)
VH: EVQLVESGGGLVQPGGSLRLSCAASGFTFSSYGMSWVRQAPGKGLELVATINRYGGSTYYPDSVKGRFTISRDNSKNTLYLQMNSLRAEDTAVYYCPRLIYYGNEGDSWGQGTLVTVSS
VL: AIQLTQSPSSLSASVGDRVTITCSASSSVSFMHWYQQKPGKAPKRWIYDTTKLTSGVPSRFSGSGSGTDYTLTISSLQPEDFATYYCQQWNSKPPLTFGGGTKVEIK
notes: Variable domains only; also called germline antibody HALA; IGHV3-23*04 + IGKV1-13*02
Take B4: the EC50 in test [1] stood at 0.557 µg/mL; in test [3], 0.253 µg/mL; in test [4] it was 0.195 µg/mL.

B5: HCLC humanized anti-CMKLR1 antibody (antibody, human IgG1, V domains shown)
VH: EVQLVESGGGLVQPGGSLRLSCAASGFTFSSYGMSWVRQAPGKGLELVATINRYGGSTYYAASVKGRFTISRDNSKNTLYLQMNSLRAEDTAVYYCPKLIYYGNEGDSWGQGTLVTVSS
VL: AIQLTQSPSSLSASVGDRVTITCRASQSVSFLHWYQQKPGKAPKRWIYDATKLTSGVPSRFSGSGSGTDFTLTISSLQPEDFATYYCQQWNSKPPLTFGGGTKVEIK
notes: as for B2
Consider B5, for which the EC50 in test [1] is 0.167 µg/mL.

B6: HEF-LEF humanized anti-CMKLR1 antibody (antibody, V domains shown)
VH: EVQLVESGGGLVQPGGSLRLSCAASGFTFSSYAMSWVRQAPGKGLELVSTISGSGGSTYYAASVKGRFTISRDNSKNTLYLQMNSLRAEDTAVYYCPKLIYYGNEGDSWGQGTLVTVSS
VL: AIQLTQSPSSLSASVGDRVTITCRASQSVSFLHWYQQKPGKAPKRLIYDASKLESGVPSRFSGSGSGTDFTLTISSLQPEDFATYYCQQWQSKPPLTFGGGTKVEIK
notes: as for B3
Regarding B6, in test [2], a half-maximal response (EC50) required 0.183 µg/mL.

B7: HCLD humanized anti-CMKLR1 antibody (antibody, human IgG1, V domains shown)
VH: EVQLVESGGGLVQPGGSLRLSCAASGFTFSSYGMSWVRQAPGKGLELVATINRYGGSTYYAASVKGRFTISRDNSKNTLYLQMNSLRAEDTAVYYCPKLIYYGNEGDSWGQGTLVTVSS
VL: AIQLTQSPSSLSASVGDRVTITCRASQSVSFLHWYQQKPGKAPKRWIYDATKLTSGVPSRFSGSGSGTDFTLTISSLQPEDFATYYCQQWQSKPPLTFGGGTKVEIK
notes: as for B2
In the case of B7, the EC50 in test [1] is 0.333 µg/mL.

B8: HDLC humanized anti-CMKLR1 antibody (antibody, human IgG1, V domains shown)
VH: EVQLVESGGGLVQPGGSLRLSCAASGFTFSSYAMSWVRQAPGKGLELVATINRYGGSTYYAASVKGRFTISRDNSKNTLYLQMNSLRAEDTAVYYCPKLIYYGNEGDSWGQGTLVTVSS
VL: AIQLTQSPSSLSASVGDRVTITCRASQSVSFLHWYQQKPGKAPKRWIYDATKLTSGVPSRFSGSGSGTDFTLTISSLQPEDFATYYCQQWNSKPPLTFGGGTKVEIK
notes: as for B2
As for B8, the EC50 in test [1] was 0.197 µg/mL.

B9: HEF-LDT52S humanized anti-CMKLR1 antibody (antibody, V domains shown)
VH: EVQLVESGGGLVQPGGSLRLSCAASGFTFSSYAMSWVRQAPGKGLELVSTISGSGGSTYYAASVKGRFTISRDNSKNTLYLQMNSLRAEDTAVYYCPKLIYYGNEGDSWGQGTLVTVSS
VL: AIQLTQSPSSLSASVGDRVTITCRASQSVSFLHWYQQKPGKAPKRWIYDASKLTSGVPSRFSGSGSGTDFTLTISSLQPEDFATYYCQQWQSKPPLTFGGGTKVEIK
notes: as for B3
The molecule B9 came in with a half-maximal effective concentration (EC50) in test [2] of 0.126 µg/mL.
